For 36 sequences, protein stability index results are on record in the supplement of paper PMC10567573.

± gives the standard deviation.

This series in a line: protein stability index of a GFP-peptide fusion (GPS, HEK-293T) (PSI 1-6); higher = more stable. The conditions noted are these: c terminus: a fixed tail appended.
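Further: 24-mer peptide tiles fused after GFP, lentivirally expressed, FACS-sorted into six equal bins by GFP/DsRed ratio, decoded by Illumina sequencing, PSI is the read-weighted mean bin number.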

For the sequence GLRQRASNKVQDSAPVETPRGKPP [HMOX1], the protein stability index (treatment: DMSO) worked out at 5 ± 0.25 and the protein stability index (treatment: MLN4924 1 uM, 8 h) is 4.83 ± 0.2.

In the case of GLSPYSDYEFRVVAVNNIGRGPPS [PTPRD], the protein stability index came out at 2.41 ± 0.35 (treatment: DMSO) and 3.14 ± 0.033 (treatment: MLN4924 1 uM, 8 h).

As for GLTFQGLLPLTELSVCPLEGSREH [PLEKHN1], the protein stability index by setting is: (treatment: DMSO) 3.57 ± 0.35; (treatment: MLN4924 1 uM, 8 h) 3.62 ± 0.35.

Consider GPGSKRDAHFCAVCSDYASGYHYG [ESR2], for which the protein stability index runs as follows: (treatment: DMSO) 2.42 ± 0.2; (treatment: MLN4924 1 uM, 8 h) 2.65 ± 0.32.

For the sequence GPMEEVERQVLPDPEVLEAVGDRQ [PBXIP1], the protein stability index by setting is: (treatment: DMSO) 5.62 ± 0.25; (treatment: MLN4924 1 uM, 8 h) 5.59 ± 0.21.

For the sequence GPPAPVGPPHARISQHGDPLLSNT [EMID1], the protein stability index was determined as 4.37 ± 0.24 (treatment: DMSO) and 4.55 ± 0.72 (treatment: MLN4924 1 uM, 8 h).

For the sequence GPSNTSHSSSRDSHLSNGLDPVAE [C2CD2L], the protein stability index stood at 5.337 ± 0.041 (treatment: DMSO) and 5.23 ± 0.089 (treatment: MLN4924 1 uM, 8 h).

Regarding GQYRANEGTSSIVMEIQKQIEKKE [TAF7L], the protein stability index turned out to be 5.06 ± 0.35 (treatment: DMSO) and 5.16 ± 0.46 (treatment: MLN4924 1 uM, 8 h).

As for GRATKRRKKSGDLKKAKVQVERMR [FBXO34], the protein stability index is, setting by setting: (treatment: DMSO) 4.25 ± 0.072; (treatment: MLN4924 1 uM, 8 h) 4.26 ± 0.65.

Consider GRAVDQDKVLRFAQQIRLHHFNSS [MYORG], for which the protein stability index is 2.51 ± 0.27 (treatment: DMSO) and 2.75 ± 0.34 (treatment: MLN4924 1 uM, 8 h).

GRGGEPRAYFMSDTREEKRFLGEG [CHGB]: the protein stability index is, setting by setting: (treatment: DMSO) 4.23 ± 0.2; (treatment: MLN4924 1 uM, 8 h) 4.44 ± 0.27.

As for GRLPRIPQVLSQEFTELLKVMIHP [WEE1], the protein stability index runs as follows: (treatment: DMSO) 2.48 ± 0.53; (treatment: MLN4924 1 uM, 8 h) 2.47 ± 0.45.

Take GSGQRVPALEEAPDSHQKRPQHSH [ELOA2]: the protein stability index is 5.26 ± 0.17 (treatment: DMSO) and 5.29 ± 0.33 (treatment: MLN4924 1 uM, 8 h).

As to GSKGEKDLGASSLHVNGESLEMDS [EHMT1], the protein stability index (treatment: DMSO) was determined as 5.28 ± 0.26 and the protein stability index (treatment: MLN4924 1 uM, 8 h) amounted to 5.39 ± 0.27.

GSSGPAGLTLGRSFSNYRPFEPQA [SEPHS2]: the protein stability index worked out at 3.22 ± 0.12 (treatment: DMSO) and 3.28 ± 0.16 (treatment: MLN4924 1 uM, 8 h).

On to GSSNVGINRWRFLLQCLEDLDANL [CRY1], for which the protein stability index was 2.48 ± 0.52 (treatment: DMSO) and 2.4 ± 0.13 (treatment: MLN4924 1 uM, 8 h).

Take GTLNREDLSRLVNCLTGEGEDTRL [CIB1]: the protein stability index was 4.25 ± 0.32 (treatment: DMSO) and 4.48 ± 0.31 (treatment: MLN4924 1 uM, 8 h).

As to GTSTWQFNFKFNLTEDMYAQDSIE [CNOT7], the protein stability index is, setting by setting: (treatment: DMSO) 2.4 ± 0.2; (treatment: MLN4924 1 uM, 8 h) 2.59 ± 0.28.

As to GVGAVPGPGTPTGPSLPSKRESPG [ZBTB22], the protein stability index (treatment: DMSO) was 5.41 ± 0.29 and the protein stability index (treatment: MLN4924 1 uM, 8 h) came out at 5.21 ± 0.14.

In turn, GVGGAERLVLDAALALQARGCSVK [ALG2] showed a protein stability index (treatment: DMSO) of 3.22 ± 0.24 and a protein stability index (treatment: MLN4924 1 uM, 8 h) of 3.28 ± 0.48.

Regarding GVGKAIEEELQEIASEPTNKHLFY [MATN2], the protein stability index was found to be 4.75 ± 0.37 (treatment: DMSO) and 4.46 ± 0.11 (treatment: MLN4924 1 uM, 8 h).

Turning to GVSRGVGFIRFDKRIEAEEAIKGL [ELAVL3], the protein stability index by setting is: (treatment: DMSO) 3.572 ± 0.035; (treatment: MLN4924 1 uM, 8 h) 4.05 ± 0.57.

As for GYSTPADIWSTACMAFELATGDYL [SRPK2], the protein stability index is, setting by setting: (treatment: DMSO) 2.1 ± 0.33; (treatment: MLN4924 1 uM, 8 h) 2.54 ± 0.5.

Turning to GYVANSSNCISGVCSVRGGEGRSR [KRT71], the protein stability index is, setting by setting: (treatment: DMSO) 3.47 ± 0.2; (treatment: MLN4924 1 uM, 8 h) 3.73 ± 0.43.

On to HAAASNGQINVVKHLLNLGVEIDE [ANKRD44], for which the protein stability index is 4.06 ± 0.35 (treatment: DMSO) and 4.16 ± 0.25 (treatment: MLN4924 1 uM, 8 h).

On to HCAAVTPAGCMYIHGGVVNIHENK [KLHDC10], for which the protein stability index is 2.86 ± 0.098 (treatment: DMSO) and 3.12 ± 0.49 (treatment: MLN4924 1 uM, 8 h).

Regarding HFKKQTIYRFLKLHPRGKNNFSPL [FEM1C], the protein stability index is, setting by setting: (treatment: DMSO) 2.71 ± 0.32; (treatment: MLN4924 1 uM, 8 h) 1.96 ± 0.14.

In turn, HGVDLSALRGAAVDEYFRQPVVDT [CARM1] returned a protein stability index (treatment: DMSO) of 4.13 ± 0.41 and a protein stability index (treatment: MLN4924 1 uM, 8 h) of 4.29 ± 0.56.

On to HIDSSCSSFIKTEPSSPASLTDSV [ESRRG], for which the protein stability index (treatment: DMSO) was determined as 4.29 ± 0.18 and the protein stability index (treatment: MLN4924 1 uM, 8 h) came to 4.23 ± 0.2.

With HIENGPFSLEQQLDDEDDDEEDCP [SRPK2], the protein stability index was determined as 5.44 ± 0.4 (treatment: DMSO) and 5.46 ± 0.2 (treatment: MLN4924 1 uM, 8 h).

For HLAPSEAKAADSPTRNDLESGLGH, the protein stability index came out at 5.14 ± 0.34 (treatment: DMSO) and 5.37 ± 0.058 (treatment: MLN4924 1 uM, 8 h).

For the sequence HLMPFRQHCRQSLASRIRSNKKML [KLHL14], the protein stability index was 2.39 ± 0.11 (treatment: DMSO) and 2.34 ± 0.1 (treatment: MLN4924 1 uM, 8 h).

Regarding HLPADSEVTLEANPTSAPGSRLAE [RSAD1], the protein stability index turned out to be 5.49 ± 0.077 (treatment: DMSO) and 5.39 ± 0.24 (treatment: MLN4924 1 uM, 8 h).

As to HLRPELRSQMQGPRTRARLGANEV [KLHL12], the protein stability index reads like this: (treatment: DMSO) 4.23 ± 0.043; (treatment: MLN4924 1 uM, 8 h) 4.22 ± 0.44.

For HMLNQVESKVKDILSKVQKNHVGK [FAM98B], the protein stability index worked out at 2.55 ± 0.51 (treatment: DMSO) and 2.36 ± 0.32 (treatment: MLN4924 1 uM, 8 h).

HPKPKLVRVLESLLVSLVTTVVVF [CLCN6]: the protein stability index by setting is: (treatment: DMSO) 3.49 ± 0.47; (treatment: MLN4924 1 uM, 8 h) 3.56 ± 0.25.
